Source: patent publication US20210364527A1 (QUANTUM SI, published 2021)
Like-named read-outs stand apart in the source and are kept apart here.

B1: PS397 (other)
chain: MSDNEVAPKRKTRVKPKLERPRLYKVILVNDDYTPRDFVVMVLKAIFRMSEEAGYRVMMTAHKLGTSVVVVCARDIAETKAKEATDLGKEAGFPLMFTTEPEE
B2: PS404 (other)
chain: MPVSVTAPQTKTKTKPKVERPKLYKVILVNDDFTPREFVVRVLKAEFRMSEDQAAKVMMTAHQRGVCVVAVFTRDVAETKATRATDAGRAKGYPLLFTTEPEE
B3: PS390 (other)
chain: MLSIAAVTEAPSKGVQTADPKTVRKPYPNYKVIVLNDDFNTFQHVSSCLLKYIPGMSEARAWELTNQVHFEGLAVVWVGPQEQAELYYAQLKNAGLTMAPPEPA
B4: PS389 (other)
chain: MLNSAAFKAASASPVIAPERSGQVTQKPYPTYKVIVLNDDFNTFQHVHDCLVKYIPGMTSDRAWQLTHQVHNDGQAIVWVGPQEQAELYHQQLSRAGLTMAPIEAA
B5: PS388 (other)
chain: MVTTLSADVYGMATAPTVAPERSNQVVRKTYPNYKVIVLNDDFNTFQHVAECLMKYIPGMSSDRAWDLTNQVHYEGQAIVWVGPQEPAELYHQQLRRAGLTMAPLEAA
B6: PS398 (other)
chain: MPLKAQNRSIVGRRDEWPPPTTQSSSETKSESKRVSDTGADTKRKTKTVPKVEKPRLYKVILVNDDYTPREFVLVVLKAVFRMSEDQGYKVMITAHQKGSCVVAVYTRDIAETKAKEAVDLAKEIGFPLMFRTEPEE
B7: PS424 (other)
chain: MSVETIEKRSTTRKLAPQYRVLLHNDDYNSMEYVVQVLMTSVPSITQPQAVNIMMEAHNSGLALVITCAQEHAEFYCETLKGHGLSSTIEPD
B8: PS423 (other)
chain: MAPTPAGAAVLDKQQQRRHKHASRYRVLLHNDPVNTMEYVVESLRQVVPQLSEQDAIAVMVEAHNTGVGLVIVCDIEPAEFYCEQLKTKGLTSSIEPED
B9: PS374 (other)
chain: MRWEDPLAAEPVTPGVAPVVEEETDAAVETPWRVILYDDDIHTFEEVILQLMKATGCTPEQGERHAWTVHTRGKDCVYQGDFFDCFRVQGVLREIQLVTEIEG
B10: PS555 (other)
chain: MADSAQTGVAEPIQETLRRRKLRDDRRPKRQPPYHVILWNDNDHTYAYVVVMLMQLFGYPAEKGYQLASEVDTQGRAVVLTTTKEHAELKRDQIHAYGKDGLIEKCKGSMWATIEPAPGE
B11: PS559 (other)
chain: MNQAAISPNPDIKPNPSTHKKRASQRQPRYHVILWNDNDHTYHYVVTMLQKLFGHPPRTGIKMATEVDKKGKVIVLTTSREHAELKRDQIHAFGADKLIRRSKGAMAASIEPES
B12: PS553 (other)
chain: MPASASAVTEPPVSLPEAAAPRPKDRPKRQPRYHVILWNDDDHTYQYVVAMLRQLFGHPPEKGFTLAKQVDKDGRVVVLTTTKEHAELKRDQIHAFGADRLLARSKGSMSASIEPEASTG
B13: PS554 (other)
chain: MSDSASATVEVQADPPADATARSQPTPARSTGSKPKRQPRYHVVLWNDDDHTYEYVIAMLRRLFGIEPEKGFRIAEEVDQSGRAVVLTTTREHAELKRDQIHAFGADRLLARSKGSMSASIEPEA
B14: PS571 (other)
chain: MTSSGASQPSILEETERKPRLSDGPWKVVLWDDDFHTYEYVIEMLMDVCQMPWEKAFQHAVEVDTRKKTIVFFGELEHAEFVHERILNYGPDPRMGTSKGSMTATLEK
B15: PS576 (other)
chain: MASTQTPDLNEITEESTKSTGGPWRVVLWDDNEHTYEYVIEMLVEICMMTVEKAFLHAVQVDKEKRTVDFSGELEHAEHVQERILNYGADPRMSNSKGSMSATLER
B16: PS563 (other)
chain: MSSRSATAYPEVEDDTSDQLQPLYHVILLNDEDHTYDYVIEMLQKIFGFPESKAFSHAVEVDTKGTTILLTCDLEQAERKRDLIHSYGPDWRLPRSLGSMAAVVEPAAG
B17: PS552 (other)
chain: MSKTSTLPEVESESAQKLKYQPPYHVILLNDDDHSYVYVITMLKELFGHPEQKGYQLADAVDKQGRAIVFTTTREHAELKQEQIHAYGPDPTIPRCKGAMTAVIEPAE
B18: PS573 (other)
chain: MSQTPVIEETTVKDPVKTGGPWKVVLWDDDEHTYDYVIEMLMEVCVMTMEQAFHHAVEVDTQKKTVVYSGEFEHAEHIQELILEYGPDPRMAVSKGSMSATLEKS
B19: PS568 (other)
chain: MTTPSLPTRETEVEERTEVEPERLYHLVLLDDDQHSYQYVIEMLASIFGYGSEKAWTLARIVDTEGRAILETASHAQCERHQSQIHAYGADSRIPTSVGSMSAVIEEAGTPPQT
B20: PS577 (other)
chain: MSASSSQPGTTTKPDLDIQPRLLPPFHVILENDEFHSMEFVIDTLRKVLGVSIERAYQLMMTAHESGQAIIWTGPKEVAELKYEQVIGFHEKRSDGRDLGPLGCRIEPAV
B21: PS572 (other)
chain: MSSEELSLQTRPKRQPPFGVILHNDDLNSFDYVIDSIRKVFHYELEKCFQLTLEAHETGRSLLWTGTLEGAELKQELLLSCGPDPIMLDKGGLPLKVTLEELPQ
B22: PS547 (other)
chain: MGFPTDFRQSIEISTPLGSQQPRFSNASSEPALADPVLVINPRIQPRYHVILLNDDDHTYRYVIEMMLIVFGHPPEKGFLIAKEVDKAGRAICLTTSLEHAEFKQEQVHAYGADPYFGPKCKGSMTAVLEPAE
B23: PS569 (other)
chain: MYSKNQIKIYCSEDDKGQTATPLLEKKPKFAPLYHVILWDDNTHTYEYVIKLLMSLFRMTFEKAYQHTLEVDKKGRTICITTHLEKAELKQEQISNFGPDILMQNSKGPMSATIEPAN

Experiments:
Assay in all cases: BLI heatmap
[1] = molecular target: T1, LA peptide LAKLDEESILKQK (XAKLDEESILKQK, X = L)
T1 construct: Immobilized on the biolayer interferometry sensor
T1 peptide: LAKLDEESILKQK

[2] = molecular target: T2, IA peptide IAKLDEESILKQK (XAKLDEESILKQK, X = I)
T2 construct: Immobilized on the biolayer interferometry sensor
T2 peptide: IAKLDEESILKQK

[3] = molecular target: T3, VA peptide VAKLDEESILKQK (XAKLDEESILKQK, X = V)
T3 construct: Immobilized on the biolayer interferometry sensor
T3 peptide: VAKLDEESILKQK

[4] = molecular target: T4, F peptide FAKLDEESILKQK (XAKLDEESILKQK, X = F)
T4 construct: Immobilized on the biolayer interferometry sensor
T4 peptide: FAKLDEESILKQK

[5] = molecular target: T5, W peptide WAKLDEESILKQK (XAKLDEESILKQK, X = W)
T5 construct: Immobilized on the biolayer interferometry sensor
T5 peptide: WAKLDEESILKQK

[6] = molecular target: T1, LA peptide LAKLDEESILKQK …
[7] = molecular target: T2, IA peptide IAKLDEESILKQK …
[8] = molecular target: T3, VA peptide VAKLDEESILKQK …
[9] = molecular target: T4, F peptide FAKLDEESILKQK (XAKLDEESILKQK, …)

Binder	binding result [1]	binding result [2]	binding result [3]	binding result [4]	binding result [5]	binding result [6]	binding result [7]	binding result [8]	binding result [9]
B1	no binding	no binding	no binding	binds	binds				
B2	no binding	no binding	no binding	binds	binds				
B3	binds	no binding	no binding	binds	no binding				
B4	binds	no binding	no binding		no binding				
B5	binds	no binding	no binding		no binding				
B6	no binding	no binding	no binding	binds	binds				
B7	no binding	no binding	no binding	binds	binds				
B8	no binding	no binding	no binding	binds	binds				
B9		no binding	no binding	binds	binds				
B10						binds	binds	no binding	
B11						binds	binds	binds	
B12						binds	binds	binds	no binding
B13						binds	binds	binds	no binding
B14						binds	binds	binds	no binding
B15						no binding	no binding	no binding	no binding
B16						binds	binds	binds	no binding
B17						binds	binds	binds	no binding
B18						binds	binds	binds	no binding
B19						binds	binds	binds	
B20						no binding	no binding	no binding	binds
B21						no binding	no binding	no binding	binds
B22								no binding	no binding
B23							no binding	no binding	no binding
